# Source: patent US20030035790A1, “Combination therapy for the prevention or treatment of cancer, inflammatory disorders or infectious diseases in a subject” (priority 1999, published 2003)
# B1: GM-CSF: murine granulocyte macrophage colony-stimulating factor added to cultures (protein, UniProt P01587 18-141, looked up)
# Granulocyte-macrophage …: APTRSPITVTRPWKHVEAIKEALNLLDDMPVTLNEEVEVVSNEFSFKKLTCVQTRLKIFEQGLRGNFTKLKGALNMTASYYQTYCPPTPETDCETQVTTYADFIDSLKTFLTDIPFECKKPGQK
# Legend:
# TILs = experiment: In vitro GM-CSF stimulation of TILs from large tumor-bearing mice, surface marker staining; assay type: cell-based, mouse; settings: GM-CSF 100 ng/ml for 5 days
# Procedure: The ability of in vitro stimulation with GM-CSF to promote the differentiation of tumor infiltrating lymphocytes (TILs) into dendritic cells or macrophages by was assessed. The TILs were isolated from large tumor-bearing mice, separated on a lymphocyte separation gradient, cultured with or without GM-CSF (100 ng/ml) for 5 days, and then stained with various cell surface markers. A reproducibly high percentage of Gr-1^+ cells was resent in the TIL population (65.5%), while the percentage of dendritic cells in the TIL population was very low (0.31%); some macrophages (14.9%) were also present in the TIL population.
# [1] = tested on: Fr.II cells derived from the bone marrow of MCA26 tumor-bearing mice; experiment: In vitro differentiation of bone marrow Fr.II myeloid progenitor cells, flow cytometry; assay type: cell-based, mouse; settings: 10 days GM-CSF, then additional 24 hours
# Procedure: FIG. 19. Immunostaining of DCs generated from different culture conditions. BM Fr.II cells derived from naive and MCA-26 tumor bearing mice were cultured with mGM-CSF for 10 days. Non-adherent cells were harvested and cultured in the presence of mGM-CSF or mGM-CSF and anti-CD40 mAb ([…], FGK45 clone) for additional 24 hours. Non-adherent cells were stained and analyzed for the expression of various surface molecules by flow cytometry. Mean±SD is obtained from three independent experiments.
# The ability of Fr.II cells derived from the bone marrow of MCA26 tumor-bearing mice to differentiate into dendritic cells when cultured under various conditions was assessed. Fr.II cells from derived the bone marrow of tumor-free or MCA26 tumor-bearing mice were cultured for 10 days with GM-CSF. Then non-adherent cells were harvested and cultured for additional 24 hours in the presence of GM-CSF or GM-CSF and anti-CD40 monoclonal antibody. The non-adherent cells were stained and analyzed for the expression of various cell surface molecules by flow cytometry. The expression of CD40, CD80, and MHC class II was relatively low in the tumor-bearing mice. However, after culturing the Fr. II cells with GM-CSF or GM-CSF and anti-CD40 monoclonal antibody, the expression of CD40, CD 80, CD11c and MHC class II by the Fr. […]
molecule,measurement,setting,value
B1,Gr-1^+ cells in the TIL population,TILs,42.7%
same,dendritic cells in the TIL population,TILs,13.9%
same,macrophages in the TIL population,TILs,24.3%
same,"expression of CD40, CD 80, CD11c and MHC class II by the Fr. II cells",[1],significantly increased
